In US20100310640A1:

T1: HLA-DR DRB1*0101 (human)
T1 chain 1: not shown
T1 chain 2: not shown

T2: HLA-DR DRB1*0401 (human)
T2 chain 1: not shown
T2 chain 2: not shown

T3: HLA-DR DRB1*0701 (human)
T3 chain 1: not shown
T3 chain 2: not shown

T4: HLA-DR DRB1*1302 (human)
T4 chain 1: not shown
T4 chain 2: not shown

T5: HLA-DR DRB1*0404 (human)
T5 chain 1: not shown
T5 chain 2: not shown

T6: HLA-DR DRB1*0405 (human)
T6 chain 1: not shown
T6 chain 2: not shown

T7: HLA-DR DRB4*0101 (human)
T7 chain 1: not shown
T7 chain 2: not shown

B1: CEA.92 peptide 9019.0111 (peptide)
peptide: GPAYSGREIIYPNAS
B2: Her2/neu.158 (peptide)
peptide: NPQLCYQDTILWKDI
B3: Peptide 9019.0090 (peptide)
peptide: GVTVWELMTFGAKPY
B4: Peptide 1622.04 (peptide)
peptide: ICTIDVYMIMVKCWM
B5: Peptide 9019.0100 (peptide)
peptide: PEYVNQPDVRPQPPS
B6: Peptide 9019.0101 (peptide)
peptide: EGPLPAARPAGATLE
B7: Peptide 9019.0178 (peptide)
peptide: AEVLFRCPPCTPERL
B8: Peptide 9019.0179 (peptide)
peptide: PERLAACGPPPVAPP
B9: Peptide 9019.0181 (peptide)
peptide: GARMPCAELVREPGC
B10: Peptide 9019.0184 (peptide)
peptide: TMNMLGGGGSAGRKP
B11: Peptide 9019.0186 (peptide)
peptide: KELAVFREKVTEQHR
B12: Peptide 9019.0188 (peptide)
peptide: EPKKLRPPPARTPCQ
B13: CEA.239 peptide 9919.0121 (peptide)
peptide: APTISPLNTSYRSGE
B14: CEA.629 peptide 9019.0139 (peptide)
peptide: INGIPQQHTQVLFIA
B15: CEA.680 peptide 9019.0144 (peptide)
peptide: SPGLSAGATVGIMIG
B16: Cyclin D1.19 peptide 9019.0146 (peptide)
peptide: DANLLNDRVLRAMLK
B17: Cyclin D1.24 peptide 9019.0147 (peptide)
peptide: NDRVLRAMLKAEETC
B18: Cyclin D1.209 (peptide)
peptide: VAAVQGLNLRSPNNF
B19: Cyclin D1.251 (peptide)
peptide: IEALLESSLRQAQQN
B20: Her/neu.3 (peptide)
peptide: LAALCRWGLLLALLP
B21: Her/neu.47 (peptide)
peptide: RHLYQGCQVVQGNLE
B22: Her/neu.52 (peptide)
peptide: GCQVVQGNLELTYLP

Legend:
Experiment in all cases: radioligand inhibition, purified HLA-DR
Settings in all cases: remark: other sources report otherwise
HLA-DR DRB1*0101 (human) = molecular target: T1, HLA-DR DRB1*0101 (human)
HLA-DR DRB1*0401 (human) = molecular target: T2, HLA-DR DRB1*0401 (human)
HLA-DR DRB1*0701 (human) = molecular target: T3, HLA-DR DRB1*0701 (human)
HLA-DR DRB1*1302 (human) = molecular target: T4, HLA-DR DRB1*1302 (human)
HLA-DR DRB1*0404 (human) = molecular target: T5, HLA-DR DRB1*0404 (human)
HLA-DR DRB1*0405 (human) = molecular target: T6, HLA-DR DRB1*0405 (human)
HLA-DR DRB4*0101 (human) = molecular target: T7, HLA-DR DRB4*0101 (human)

IC50 (HLA-DR DRB1*0101 (human)) | IC50 (HLA-DR DRB1*0401 (human)) | IC50 (HLA-DR DRB1*0701 (human)) | IC50 (HLA-DR DRB1*1302 (human)) | IC50 (HLA-DR DRB1*0404 (human)) | IC50 (HLA-DR DRB1*0405 (human)) | IC50 (HLA-DR DRB4*0101 (human)) | Binder
9440 nM | 13000 nM | 5260 nM | 154 nM |  |  |  | B1
3650 nM |  |  | 5070 nM |  |  |  | B2
40 nM |  |  | 8860 nM | 4.1 nM | 2110 nM |  | B3
 | 717 nM |  |  |  | 955 nM |  | B4
6160 nM |  |  |  |  |  |  | B5
17300 nM |  | 7460 nM | 10200 nM |  |  |  | B6
1280 nM |  | 16000 nM | 5770 nM |  |  |  | B7
28 nM | 5540 nM |  |  |  |  |  | B8
164 nM |  |  |  | 13100 nM |  | 4700 nM | B9
1020 nM | 791 nM | 6180 nM | 5690 nM |  |  |  | B10
2040 nM |  |  |  | 26 nM |  |  | B11
 | 806 nM |  |  |  |  |  | B12
2430 nM | 295 nM | 10600 nM | 125 nM | 40 nM | 5990 nM |  | B13
682 nM | 181 nM | 31 nM |  |  | 942 nM | 2700 nM | B14
3510 nM | 4190 nM | 92 nM | 80 nM |  |  | 2590 nM | B15
1460 nM |  |  | 286 nM |  |  |  | B16
 | 1960 nM |  |  |  |  |  | B17
44 nM |  |  |  |  |  |  | B18
2610 nM | 18 nM |  |  |  |  |  | B19
2040 nM | 5390 nM | 8000 nM | 704 nM |  |  |  | B20
 | 422 nM | 4940 nM | 5040 nM |  |  |  | B21
2600 nM | 2740 nM | 1970 nM |  |  |  |  | B22
